The record followed here is article PMC7196836, “Molecular analysis of the ribosome recycling factor ABCE1 bound to the 30S post‐splitting complex” (The EMBO Journal, 2020).

The target in this assay is Thermococcus celer 30S small ribosomal subunit (T. celer (endogenous in T. celer cells)) (UniProt P29161). Description: cryo-EM structure; post-splitting complex from 1 nmol T. celer 70S split by ABCE1^IIEA (8 uM), aPelota and aRF1 (5 uM each), 0.5 mM AMP-PNP, 50 mM HEPES-KOH pH 7.5, 30 mM KCl, 10 mM MgCl2, 2 mM DTT, 65 °C 15 min; cross-linked with 1% formaldehyde; 30S fractions of a 10-30% sucrose gradient.

With “ABCE1^IIEA (E238A/E485A), hydrolysis-deficient ABCE1 from Saccharolobus solfataricus (from UniProt Q980K5 1-594) (enzyme)”, the percent of 30S particles associated with ABCE1 (3D classification) was found to be 97%.
